PMC12416549 (2024)

T1: TNFR1 (Homo sapiens, UniProt P19438)
T1 chain: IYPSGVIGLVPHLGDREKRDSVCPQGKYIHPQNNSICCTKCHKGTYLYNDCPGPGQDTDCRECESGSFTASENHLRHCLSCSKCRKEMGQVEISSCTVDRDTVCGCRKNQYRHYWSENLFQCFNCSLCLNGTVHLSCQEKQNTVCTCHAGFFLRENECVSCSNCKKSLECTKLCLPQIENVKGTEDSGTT


Target: T1, TNFR1
Experiment: yeast display SC50

Binder	apparent Kd (screen) [pM]
I21V (designed binder) SMEEEVEKAAKEYEKKKKEAVEKHLEKLKAKDKEAAERFLKELEEAAKEYAKDEAKTMSEEEAKRRAKKYKEKVLLSELSEEEQKEIKEAEEKLVRTILKYVEEAAK	446
H24C (designed binder) SMEEEVEKAAKEYEKKKKEAIEKCLEKLKAKDKEAAERFLKELEEAAKEYAKDEAKTMSEEEAKRRAKKYKEKVLLSELSEEEQKEIKEAEEKLVRTILKYVEEAAK	446
Y50Q (designed binder) SMEEEVEKAAKEYEKKKKEAIEKHLEKLKAKDKEAAERFLKELEEAAKEQAKDEAKTMSEEEAKRRAKKYKEKVLLSELSEEEQKEIKEAEEKLVRTILKYVEEAAK	4830
E34N (designed binder) SMEEEVEKAAKEYEKKKKEAIEKHLEKLKAKDKNAAERFLKELEEAAKEYAKDEAKTMSEEEAKRRAKKYKEKVLLSELSEEEQKEIKEAEEKLVRTILKYVEEAAK	490
E54Y (designed binder) SMEEEVEKAAKEYEKKKKEAIEKHLEKLKAKDKEAAERFLKELEEAAKEYAKDYAKTMSEEEAKRRAKKYKEKVLLSELSEEEQKEIKEAEEKLVRTILKYVEEAAK	7780
E26V (designed binder) SMEEEVEKAAKEYEKKKKEAIEKHLVKLKAKDKEAAERFLKELEEAAKEYAKDEAKTMSEEEAKRRAKKYKEKVLLSELSEEEQKEIKEAEEKLVRTILKYVEEAAK	790
E7S (designed binder) SMEEEVSKAAKEYEKKKKEAIEKHLEKLKAKDKEAAERFLKELEEAAKEYAKDEAKTMSEEEAKRRAKKYKEKVLLSELSEEEQKEIKEAEEKLVRTILKYVEEAAK	2730
A47H (designed binder) SMEEEVEKAAKEYEKKKKEAIEKHLEKLKAKDKEAAERFLKELEEAHKEYAKDEAKTMSEEEAKRRAKKYKEKVLLSELSEEEQKEIKEAEEKLVRTILKYVEEAAK	446
E3L (designed binder) SMLEEVEKAAKEYEKKKKEAIEKHLEKLKAKDKEAAERFLKELEEAAKEYAKDEAKTMSEEEAKRRAKKYKEKVLLSELSEEEQKEIKEAEEKLVRTILKYVEEAAK	12500
E5A (designed binder) SMEEAVEKAAKEYEKKKKEAIEKHLEKLKAKDKEAAERFLKELEEAAKEYAKDEAKTMSEEEAKRRAKKYKEKVLLSELSEEEQKEIKEAEEKLVRTILKYVEEAAK	593
A10G (designed binder) SMEEEVEKAGKEYEKKKKEAIEKHLEKLKAKDKEAAERFLKELEEAAKEYAKDEAKTMSEEEAKRRAKKYKEKVLLSELSEEEQKEIKEAEEKLVRTILKYVEEAAK	446
M2Q (designed binder) SQEEEVEKAAKEYEKKKKEAIEKHLEKLKAKDKEAAERFLKELEEAAKEYAKDEAKTMSEEEAKRRAKKYKEKVLLSELSEEEQKEIKEAEEKLVRTILKYVEEAAK	869
K15D (designed binder) SMEEEVEKAAKEYEDKKKEAIEKHLEKLKAKDKEAAERFLKELEEAAKEYAKDEAKTMSEEEAKRRAKKYKEKVLLSELSEEEQKEIKEAEEKLVRTILKYVEEAAK	653
M2N (designed binder) SNEEEVEKAAKEYEKKKKEAIEKHLEKLKAKDKEAAERFLKELEEAAKEYAKDEAKTMSEEEAKRRAKKYKEKVLLSELSEEEQKEIKEAEEKLVRTILKYVEEAAK	490

The next lines start with the values.

apparent Kd (screen) [pM]	Binder
869	E61P (designed binder) SMEEEVEKAAKEYEKKKKEAIEKHLEKLKAKDKEAAERFLKELEEAAKEYAKDEAKTMSEPEAKRRAKKYKEKVLLSELSEEEQKEIKEAEEKLVRTILKYVEEAAK
490	E62K (designed binder) SMEEEVEKAAKEYEKKKKEAIEKHLEKLKAKDKEAAERFLKELEEAAKEYAKDEAKTMSEEKAKRRAKKYKEKVLLSELSEEEQKEIKEAEEKLVRTILKYVEEAAK
446	K71N (designed binder) SMEEEVEKAAKEYEKKKKEAIEKHLEKLKAKDKEAAERFLKELEEAAKEYAKDEAKTMSEEEAKRRAKKYNEKVLLSELSEEEQKEIKEAEEKLVRTILKYVEEAAK
29500	V74Q (designed binder) SMEEEVEKAAKEYEKKKKEAIEKHLEKLKAKDKEAAERFLKELEEAAKEYAKDEAKTMSEEEAKRRAKKYKEKQLLSELSEEEQKEIKEAEEKLVRTILKYVEEAAK
869	S77Y (designed binder) SMEEEVEKAAKEYEKKKKEAIEKHLEKLKAKDKEAAERFLKELEEAAKEYAKDEAKTMSEEEAKRRAKKYKEKVLLYELSEEEQKEIKEAEEKLVRTILKYVEEAAK
1050	S80C (designed binder) SMEEEVEKAAKEYEKKKKEAIEKHLEKLKAKDKEAAERFLKELEEAAKEYAKDEAKTMSEEEAKRRAKKYKEKVLLSELCEEEQKEIKEAEEKLVRTILKYVEEAAK
1860	E89C (designed binder) SMEEEVEKAAKEYEKKKKEAIEKHLEKLKAKDKEAAERFLKELEEAAKEYAKDEAKTMSEEEAKRRAKKYKEKVLLSELSEEEQKEIKCAEEKLVRTILKYVEEAAK
653	E104I (designed binder) SMEEEVEKAAKEYEKKKKEAIEKHLEKLKAKDKEAAERFLKELEEAAKEYAKDEAKTMSEEEAKRRAKKYKEKVLLSELSEEEQKEIKEAEEKLVRTILKYVEIAAK
5310	A67D (designed binder) SMEEEVEKAAKEYEKKKKEAIEKHLEKLKAKDKEAAERFLKELEEAAKEYAKDEAKTMSEEEAKRRDKKYKEKVLLSELSEEEQKEIKEAEEKLVRTILKYVEEAAK
446	K85D (designed binder) SMEEEVEKAAKEYEKKKKEAIEKHLEKLKAKDKEAAERFLKELEEAAKEYAKDEAKTMSEEEAKRRAKKYKEKVLLSELSEEEQDEIKEAEEKLVRTILKYVEEAAK
405	Y101E (designed binder) SMEEEVEKAAKEYEKKKKEAIEKHLEKLKAKDKEAAERFLKELEEAAKEYAKDEAKTMSEEEAKRRAKKYKEKVLLSELSEEEQKEIKEAEEKLVRTILKEVEEAAK
12500	K73H (designed binder) SMEEEVEKAAKEYEKKKKEAIEKHLEKLKAKDKEAAERFLKELEEAAKEYAKDEAKTMSEEEAKRRAKKYKEHVLLSELSEEEQKEIKEAEEKLVRTILKYVEEAAK
